Consider four molecules from patent US20260028409A1 (Bristol-Myers Squibb, published 2026).

For experiment [1], the target named is T1, human C-C Motif Chemokine Receptor 8 (hCCR8) (human, UniProt P51685 1-355).
T1 construct: also called human CCR8
In words: FACS on hCCR8-overexpressing Raji cells, fluorescent secondary Ab. The procedure: Four of the 6 mAbs bound to the hCCR8-expressing cells with an EC₅₀ below 1 nM (FIG. 2A; see Table 1) whereas no nonspecific binding was observed on the parental Raji cells (FIG. 2B).
FACS was used to evaluate the binding specificity of Abs binding to CCR8. […] Unbound dye was washed away and cells were plated into 96-well round bottom plates at a concentration of 5×10⁵ cells per well in FACS staining buffer (PBS w/o Ca/Mg, 2 mM EDTA, 0.2% BSA). Serial dilutions of mAbs that bind to an epitope other than an N-terminal epitope of CCR8 were added, starting at a concentration of 20 nM, and incubated on ice for 30 min. Unbound Abs were washed off and a detection secondary Ab was added and incubated for 30 min on ice. Additional washes were performed and Ab binding affinities were determined by measuring the fluorescence intensities of the secondary Abs on a LSRFortessa X-20 cytometer (BD Biosciences).

For experiment [2], the target named is T2, BSA-conjugated peptide corresponding to the N-terminal 35 amino acid residues of hCCR8 (human, two sulfated tyrosine residues (positions not stated for this peptide); conjugated to bovine serum albumin (BSA)).
T2 construct: Coated at 2 ug/ml on ELISA plates; also called BSA-conjugated CCR8 N-terminal peptide; sulfated N-terminal peptide of CCR8 conjugated to BSA
T2 sequence (peptide, as listed by the source): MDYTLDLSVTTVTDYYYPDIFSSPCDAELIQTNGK
In words: ELISA, hybridoma supernatant on plate-coated BSA-conjugated sulfated N-terminal peptide (2 ug/ml). Here is the method: To broadly characterize the epitopes of confirmed CCR8-specific Abs, hybridoma culture supernatants were screened by ELISA to measure binding to hCCR8 N-terminal peptides. Briefly, a BSA-conjugated peptide corresponding to the N-terminal 35 amino acid residues of hCCR8 (SEQ ID NO: 74; 2 μg/ml) representing the properly sulfated hCCR8 N-terminus was coated onto high-binding 96-well plates (Corning, Corning, NY) overnight at 4° C. Plates were blocked with BSA and washed, then 100 μl of culture supernatant were added for 30-60 min on a plate shaker. After washing, an appropriate anti-Fc secondary Ab conjugated to horseradish peroxidase (HRP) was added and left for 30-60 min. The plates were developed with ABTS or HRP substrate (SurModics, Eden Prairie, MN), and absorbance was measured at 405 or 650 nm on a Sunrise microplate reader (TECAN; Mannedorf, Switzerland).

Experiment [3] addresses T1, human C-C Motif Chemokine Receptor 8 …. In words: % receptor occupancy against 4A19 concentration, flow cytometry on CCR8^+ Tregs in healthy donor whole blood; the other of the two RO formats (direct/total or indirect/total). The procedure:
(§1) A head-to-head comparison of the two distinct RO assay formats was performed. Whole blood samples (180 μl) were pre-treated with various concentrations of the therapeutic mAb, mAb 4A19 (WO 2021/194942), mimicking different 4A19 dose treatment levels in subjects in the dose escalation arm of a Phase I clinical study (NCT04895709), and pre-incubated for 1 h at 37° C. Aliquots of the treated samples were transferred to 4° C. for periods of 24, 48 and 72h for specimen stability experiments.
(§2) After pre-incubation, tubes containing background samples were treated with a saturating concentration ([…]) of mAb 4A19, while other tubes (containing free or bound or FMO [fluorescence minus one] samples) were treated with PBS (equal volume as mAb 4A19) for 30 min at room temperature (RT). […]
On the technique in general: A flow cytometer gives signals particle by particle.

Experiment [4] shares this target. Nature of the experiment: cell-based or functional assay.
For experiment [5] the target is unchanged. In words: % receptor occupancy against 4A19 concentration, flow cytometry on CCR8^+ Tregs in healthy donor whole blood; one of the two RO formats (direct/total or indirect/total). Here is the method:
as §1, §2

T1 sequence (P51685 whole entry): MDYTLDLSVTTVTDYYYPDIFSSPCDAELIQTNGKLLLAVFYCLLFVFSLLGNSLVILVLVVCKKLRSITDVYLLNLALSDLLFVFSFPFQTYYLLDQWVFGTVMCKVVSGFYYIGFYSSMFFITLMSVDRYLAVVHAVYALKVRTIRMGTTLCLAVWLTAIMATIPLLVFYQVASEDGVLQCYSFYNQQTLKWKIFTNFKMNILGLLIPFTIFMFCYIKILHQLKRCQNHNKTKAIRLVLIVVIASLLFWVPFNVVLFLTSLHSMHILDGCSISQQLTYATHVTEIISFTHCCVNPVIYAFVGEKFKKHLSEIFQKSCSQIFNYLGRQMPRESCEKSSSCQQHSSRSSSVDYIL

B1: 23A14 hIgG1 (antibody, V domains shown)
VH: QVQLVESGGGVVQPGRSLRLSCAVSGLTFSSYAMHWVRQAPGKGLEWVAVISYDGNKKYNADSVKGRFTISRDNSKNTLYLQMNSLRAEDTAVYYCARAEGKGDYWGQGTLVTVSS
VL: EIVLTQSPATLSLSPGERATLSCRASQSVSSYLVWYQQKPGQAPRLLIYDASNRATGIPARFSGSGSGTDFTLTISSLEPEDFAVYYCQQRSNWPRTFGQGTKVEIKR
notes: Tested as hIgG1; also called 23A14-hG1
In experiment [1], B1 yielded an EC50 of 112 pM. The binding result in experiment [2] is recorded as “no binding”.

B2: mAb 4A19 (antibody, human IgG1, kappa, V domains shown)
VH: QVQLVQSGAEVKKPGASVKVSCKASGYTFTDSEMHWVRQATGQGLEWMGAIQPETGGTAYNQKFKARVTMTRDTSISTAYMELSSLRSEDTAVYYCARRRRNFDYWGQGTLVTVSS
VL: DIVMTQTPLSLSVTPGQPASISCRSSQSLFHSSGNTYLHWYLQKPGQPPQLLIYKVSNRFSGVPDRFSGSGSGTDFTLKISRVEAEDVGVYYCSQSTHVPFTFGQGTKLEIKR
notes: Therapeutic anti-hCCR8 mAb of WO 2021/194942; also called therapeutic anti-CCR8 mAb 4A19; A419
Regarding B2, the EC50 in experiment [3] was 23 pM. Moreover, in experiment [4], the “Maximum Depletion (%) of CCR8^+ Tregs Relative to KLH Isotype Control; Endometrial cancer” value was 69%; the “Maximum Depletion (%) of CCR8^+ Tregs Relative to KLH Isotype Control; Head and neck squamous cell carcinoma” value turned out to be 25%. The molecule also returned an EC50 in experiment [5] of 22 pM.

B3: 21C17 mIgG2a (antibody, V domains shown)
VH: VVQLQQSGPVLVKPGASVKMSCAASGYTFTDNYINWVKQRHGKSLEWIGVINPYNGLTAYDQNFKGKATLTVDKSSSTAYMALNSLTSEASAVYYCARRYGGTPVRYFDVWGTGTTVTVSS
VL: DVVLTQTPLTLSVTIGQPASISCKSSQSLLDSSGKTYLNWLLQRPGQSPKRLIYLVSKLDSGVPDRFSGSGSGTDFTLKFSRVEAEDLGVYYCWQATHFPWSFGGGSKLEVKR
notes: Used unlabeled or conjugated to BV421; also called mAb 21C17; 21C17-mG2a
The molecule B3 gave a 50% effective concentration (EC50) in experiment [1] of 80.7 pM. Besides, the binding result in experiment [2] was “no binding”.

B4: 22B13 mIgG2a (antibody, V domains shown)
VH: VVQLQQSGPVLVKPGASVKMSCAASGYTFTDNYINWVKQRHGKSLEWIGVINPYNGLTAYDQNFKGKATLTVDKSSSTAYMALNSLTSEASAVYYCARRYGGTPVRYFDVWGTGTTVTVSS
VL: DIQMTQTASSLSASLGARVTISCRASQDISNYLNWYQQKPDGTFELLIYYTSRLHSGVPSRFSGSGSGTDYSLTITNLEQEDIATYFCQQGETLPWTFGGGTKLEIKR
notes: also called 22B13-mG2a
Take B4: the EC50 in experiment [1] worked out at 81.5 pM. Moreover, in experiment [2], the binding result is “no binding”.

Broadly, the EC50 is the concentration needed to bring the measured effect to its halfway point.
